Molecular target: Human SOCS4 (amino acids 274-437) (human, UniProt Q8WXH5 274-437)
Assay: crystal structure; ternary complex coexpressed and purified; crystals at 4°C from 10% PEG6000, 2M NaCl; molecular replacement, refined to 2.5 Å
Settings: both partners purified

Human SOCS4 (amino acids 274-437), sequence (Q8WXH5 274-437): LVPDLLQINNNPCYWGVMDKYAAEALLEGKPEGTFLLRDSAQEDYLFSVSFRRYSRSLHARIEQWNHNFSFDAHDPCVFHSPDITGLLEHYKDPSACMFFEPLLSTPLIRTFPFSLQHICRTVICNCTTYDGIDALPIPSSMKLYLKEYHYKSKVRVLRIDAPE

- binding result: binds
B1: ElonginB (natural protein, human)
chain: MDVFLMIRRHKTTIFTDAKESSTVFELKRIVEGILKRPPDEQRLYKDDQLLDDGKTLGECGFTSQTARPQAPATVGLAFRADDTFEALCIEPFSSPPELPDVMKPQDSGSSANEQAVQ

— PMC2225448 (Structure(London, England:1993), 2007)
